Assay results from patent publication US11739333B2, “Regulation of gene expression by aptamer-modulated RNase p cleavage” (MeiraGTx UK II Limited, priority 2017, dated 2023).

Key:
[1] = system: luciferase target gene expression in HEK 293 cells; assay: Firefly luciferase assay of cultured cells, mascRNA inserted in 3' UTR; type: cell-based; details: no ligand
Experimental: Plasmid constructs: DNA fragments containing mouse mascRNA sequence and restriction sites at each end were synthesized (IDT), and digested and cloned into a plasmid backbone Con 8 that contains CMV enhancer/promoter and human beta-globin polyadenylation sequence. All constructs were verified by DNA sequencing (Genewiz).
Firefly luciferase assay of cultured cells: 3.5×10^4 HEK 293 cells were plated in 96-well flat bottom plate the day before transfection. Plasmid DNA (500 ng) was added to a tube or a 96-well U-bottom plate. Separately, TransIT-293 reagent (Minis; 1.4 μL) was added to 50 μL opti-mem I media (Life Technologies) and allowed to sit for 5 minutes at room temperature (“RT”). Then, 50 μL of this diluted transfection reagent was added to the DNA, mixed, and incubated at RT for 20 min. Finally, 7 μL of this solution was added to a well of cells in a 96-well plate. 4 hours after transfection, medium containing transfection solution was replaced with fresh medium. 24 hours after media change, plates were removed from the incubator, and equilibrated to RT for several minutes on a lab bench, then aspirated. […] Following a 5-min incubation at RT, luminescence was measured using a Tecan machine with 500 mSec read time. The luciferase activity was expressed as mean arbitrary light unit (ALU)±S.D.

[2] = system: luciferase target gene expression in HEK 293 cells (aptamer-modulated RNase P cleavage of mRNA); assay: Firefly luciferase assay of transfected cells treated with or without aptamer ligand; type: cell-based
Experimental: Firefly luciferase assay of cultured cells: 3.5×10^4 HEK 293 cells were plated in 96-well flat bottom plate the day before transfection. Plasmid DNA (500 ng) was added to a tube or a 96-well U-bottom plate. Separately, TransIT-293 reagent (Minis; 1.4 μL) was added to 50 μL opti-mem I media (Life Technologies) and allowed to sit for 5 minutes at room temperature (“RT”). Then, 50 μL of this diluted transfection reagent was added to the DNA, mixed, and incubated at RT for 20 min. Finally, 7 μL of this solution was added to a well of cells in a 96-well plate. 4 hours after transfection, medium containing transfection solution was replaced with fresh medium. 24 hours after media change, plates were removed from the incubator, and equilibrated to RT for several minutes on a lab bench, then aspirated. Glo-lysis buffer (Promega, 100 μL, RT) was added, and the plates allowed to remain at RT for at least 5 minutes. Then, the well contents were mixed by 50 μL trituration, and 20 μL of each sample was mixed with 20 μL of bright-glo reagent (Promega) that had been diluted to 10% in glo-lysis buffer. 96 wells were spaced on an opaque white 384-well plate. Following a 5-min incubation at RT, luminescence was measured using a Tecan machine with 500 mSec read time. The luciferase activity was expressed as mean arbitrary light unit (ALU)±S.D.
Plasmid constructs: oligonucleotide fragments containing mascRNA and guanine aptamer sequences (Mandal, M, et al., Cell 113, 577-586 (2003), incorporated herein by reference) were synthesized (IDT) and cloned into a luciferase (Luci) expression construct (Con8) in the 3′ UTR region using compatible restriction sites BamHI and XhoI. All the constructs were verified by DNA sequencing (Genewiz).
Firefly luciferase assay of cultured cells: cells were transfected as described in Example 1. Four hours after transfection, medium containing transfection solution was replaced by medium with either 0.5% DMSO as solvent control or 500 μM guanosine (Sigma) as aptamer ligand. Twenty-two to twenty-four hours after treatment, a luciferase assay was performed as described in Example 1.
Plasmid construction: a DNA fragment containing sequences for the guanine aptamer xpt-G and human arginine pre-tRNA (Nashimoto M. N. et al. Long 5′ leaders inhibit removal of a 3′ trailer from a precursor tRNA by mammalian tRNA 3′ processing endoribonuclease. Nucleic Acids Research, 1999; 27(13): 2770-2776) were synthesized (IDT). The synthesized DNA fragments were digested with BamHI and XhoI restriction enzymes and cloned into the Con8 construct digested with the same restriction enzymes. Construct sequences were verified by DNA sequencing (Genewiz).
Plasmid construction: a DNA fragment containing sequences for the adenine aptamer ydhl-A (M. Mandal and R. R. Breaker, Adenine riboswitches and gene activation by disruption of a transcription terminator. Nature Structural & Molecular Biology. 2004; 11: 29-35, incorporated herein by reference) or theophylline aptamer (G. R. Zimmerman, et al. Interlocking structural motifs mediate molecular discrimination by a theophylline-binding RNA. Nature Structural Biology. 1997; 4: 644-649, incorporated herein by reference), and mascRNA sequence were synthesized (IDT). The synthesized DNA fragments were digested with BamHI and XhoI restriction enzymes and cloned into Con8 digested with the same restriction enzymes. Construct sequences were verified by DNA sequencing (Genewiz).
Four hours after transfection, the media was aspirated, and new media with NaOH (1 mM) as solvent or 1 mM adenine (Calbiochem), or 3 mM theophylline (Sigma) was added. The induction fold was expressed as the quotient of luciferase activity obtained in the presence of aptamer ligand divided by the value obtained in the absence of the aptamer ligand. […]

In the case of “Luci-mascRNA-mlp: luciferase construct with mascRNA mutated in the T-loop from UUC to AAG, negative control (GACGCUGGUGGCUGGCACUCCUGGUUUCCAGGACGGGGAAGAAGUCCCUGCGGUGUCU)”, the “decrease in luciferase expression compared to the luciferase construct that has no mascRNA (Luci)” value [1] is reported as 20%.

B1: GM8: SEQ ID NO: 10; 3 nucleotides between effector region stem and mascRNA acceptor stem (nucleic acid)
chain: CCTCATAAAGGCCAAGAAGGGCGGAAAGATCGCCGTGTAAGGATCCAAGACGAGCTGTACAAGTAAAGAAGAGCTAATGTATAATCGCGTGGATATGGCACGCAAGTTTCTACCGGGCACCGTAAATGTCCGACTACATTAGCCGAGACGCTGGTGGCTGGCACTCCTGGTTTCCAGGACGGGGTTCAAGTCCCTGCGGTGTCTTTGCTTGGATCGGCCGCGACTCTAGAGTCGACCTGCAGGCATGCAAGCTTCAGCTGCTCGAGGGCCCAGATCTAATTCACCCCACCAGTGCAGGCTGCCTATCAG
B1 was tested, and the “luciferase expression in response to guanine treatment” value ([2]; guanine treatment) was “upregulate luciferase expression”.

B2: YM: SEQ ID NO: 15; ydhl-A adenine aptamer and mascRNA in luciferase 3' UTR (nucleic acid)
chain: CCTCATAAAGGCCAAGAAGGGCGGAAAGATCGCCGTGTAAGGATCCAAGACGAGCTGTACAAGTAAAGCGGCCGTAATGTTATAACCTCAATAATATGGTTTGAGGGTGTCTACCAGGAACCGTAAAATCCTGATTAACATTACGACGCTGGTGGCTGGCACTCCTGGTTTCCAGGACGGGGTTCAAGTCCCTGCGGTGTCTTTGCTTGGATCGGCCGCGACTCTAGAGTCGACCTGCAGGCATGCAAGCTTCAGCTGCTCGAGGGCCCAGATCTAATTCACCCCACCAGTGCAGGCTGCCTATCAG
For B2, the “fold increase in luciferase expression with adenine” value ([2]; 1 mM adenine vs NaOH solvent) was 3.3 fold.

B3: MG3: SEQ ID NO: 12; MG1 variant with 4 alternatively shared nucleotides (nucleic acid)
chain: CCTCATAAAGGCCAAGAAGGGCGGAAAGATCGCCGTGTAAGGATCCAAGACGAGCTGTACAAGTAAAGCGGCCAATTCGGACAAAAACGAGACGCTGGTGGCTGGCACTCCTGGTTTCCAGGACGGGGTTCAAGTCCCTGCGGTGTCTGTATAATCGCGTGGATATGGCACGCAAGTTTCTACCGGGCACCGTAAATGTCCGACTACAGACAATCTAGAGTCGACCTGCAGGCATGCAAGCTTCAGCTGCTCGAGGGCCCAGATCTAATTCACCCCACCAGTGCAGGCTGCCTATCAG
B3 was tested, and the “basal level luciferase activity” value ([2]; absence of guanine) was “modest decrease” and the “induction fold of luciferase, with guanine versus without guanine” value ([2]; guanine treatment) was “approximately 2 fold”.

B4: TheoM: SEQ ID NO: 16; theophylline aptamer and mascRNA in luciferase 3' UTR (nucleic acid)
chain: CCTCATAAAGGCCAAGAAGGGCGGAAAGATCGCCGTGTAAGGATCCAAGACGAGCTGTACAAGTAAAGCGGCCTAATGTGATACCAGCCGAAAGGCCCTTGGCAGCACATTAGACGCTGGTGGCTGGCACTCCTGGTTTCCAGGACGGGGTTCAAGTCCCTGCGGTGTCTTTGCTTGGATCGGCCGCGACTCTAGAGTCGACCTGCAGGCATGCAAGCTTCAGCTGCTCGAGGGCCCAGATCTAATTCACCCCACCAGTGCAGGCTGCCTATCAG
For B4, the “fold increase in luciferase expression with theophylline” value ([2]; 3 mM theophylline vs solvent) was 4.1 fold and the “luciferase level as % of the control Con8 construct” value ([2]; absence of theophylline treatment) was “approximately 43.4%”.

B5: GArg: SEQ ID NO: 14; GM1 with mascRNA replaced by human arginine tRNA sequence (nucleic acid)
chain: CCTCATAAAGGCCAAGAAGGGCGGAAAGATCGCCGTGTAAGGATCCAAGACGAGCTGTACAAGTAAAGAAGACTGCGACGATAATCGCGTGGATATGGCACGCAAGTTTCTACCGGGCACCGTAAATGTCCGACTCGTCGCAGGGCCAGTGGCGCAATGGATAACGCGTCTGACTACGGATCAGAAGATTCCAGGTTCGACTCCTGGCTGGCTCGGTGTAGGCCGCGACTCTAGAGTCGACCTGCAGGCATGCAAGCTTCAGCTGCTCGAGGGCCCAGATCTAATTCACCCCACCAGTGCAGGCTGCCTATCAG
B5 was tested, and the “basal level luciferase expression as % of control construct Con8” value ([2]; absence of guanine) was “approximately 50%” and the “induction fold of luciferase, with guanine versus without guanine” value ([2]; guanine treatment) was 1.6 fold.

B6: MG4: SEQ ID NO: 13; MG1 variant with 3 alternatively shared nucleotides (nucleic acid)
chain: CCTCATAAAGGCCAAGAAGGGCGGAAAGATCGCCGTGTAAGGATCCAAGACGAGCTGTACAAGTAAAGCGGCCAATTCGGACAAAAACGAGACGCTGGTGGCTGGCACTCCTGGTTTCCAGGACGGGGTTCAAGTCCCTGCGGTGTCTAGTATAATCGCGTGGATATGGCACGCAAGTTTCTACCGGGCACCGTAAATGTCCGACTACTAGACTTCTAGAGTCGACCTGCAGGCATGCAAGCTTCAGCTGCTCGAGGGCCCAGATCTAATTCACCCCACCAGTGCAGGCTGCCTATCAG
B6 was tested, and the “basal level luciferase activity” value ([2]; absence of guanine) was “modest decrease” and the “induction fold of luciferase, with guanine versus without guanine” value ([2]; guanine treatment) was “approximately 2 fold”.
